Results published in US20150344570A1 (published 2015).

B1: GpH7-A5/GpH7-B3 variant P238_02A/GpL16-k0 (antibody, human IgG1, kappa)
heavy 1: not shown
heavy 2: not shown
light: DIVMTQSPLSLPVTPGEPASISCQASESLVHSNRNTYLHWYLQKPGQSPQLLIYKVSNRFSGVPDRFSGSGSGTDFTLKISRVEAEDVGVYYCSQNTHVPPTFGQGTKVEIERTVAAPSVFIFPPSDEQLKSGTASVVCLLNNFYPREAKVQWKVDNALQSGNSQESVTEQDSKDSTYSLSSTLTLSKADYEKHKVYACEVTHQGLSSPVTKSFNRGEC
notes: IgG1, anti-glypican-3; also called He Ab
B2: GpH7-A5/GpH7-B3 variant G237_15Y/GpL16-k0 (antibody, human IgG1, kappa)
heavy 1: not shown
heavy 2: not shown
light: B1 light
notes: as for B1
B3: GpH7-A5/GpH7-B3 variant I332_11K/GpL16-k0 (He Ab) (antibody, human IgG1, kappa)
heavy 1: not shown
heavy 2: not shown
light: B1 light
notes: Heterodimerized antibody with the alteration in one H chain only
B4: GpH7-A5/GpH7-B3 variant P331_06M/GpL16-k0 (He Ab) (antibody, human IgG1, kappa)
heavy 1: not shown
heavy 2: not shown
light: B1 light
notes: as for B3
B5: GpH7-A5/GpH7-B3 variant P331_08L/GpL16-k0 (He Ab) (antibody, human IgG1, kappa)
heavy 1: not shown
heavy 2: not shown
light: B1 light
notes: as for B3
B6: GpH7-A5/GpH7-B3 variant L328_06M/GpL16-k0 (He Ab) (antibody, human IgG1, kappa)
heavy 1: not shown
heavy 2: not shown
light: B1 light
notes: as for B3
B7: GpH7-A5/GpH7-B3 variant G237_18N/GpL16-k0 (antibody, human IgG1, kappa)
heavy 1: not shown
heavy 2: not shown
light: B1 light
notes: as for B1
B8: GpH7-A5/GpH7-B3 variant L234_09D/GpL16-k0 (antibody, human IgG1, kappa)
heavy 1: not shown
heavy 2: not shown
light: B1 light
notes: as for B1
B9: GpH7-A5/GpH7-B3 variant G237_10E/GpL16-k0 (antibody, human IgG1, kappa)
heavy 1: not shown
heavy 2: not shown
light: B1 light
notes: as for B1
B10: GpH7-A5/GpH7-B3 variant L235_20W/GpL16-k0 (antibody, human IgG1, kappa)
heavy 1: not shown
heavy 2: not shown
light: B1 light
notes: as for B1
B11: GpH7-A5/GpH7-B3 variant P329_20W/GpL16-k0 (He Ab) (antibody, human IgG1, kappa)
heavy 1: not shown
heavy 2: not shown
light: B1 light
notes: as for B3
B12: GpH7-A5/GpH7-B3 variant G237_13S/GpL16-k0 (antibody, human IgG1, kappa)
heavy 1: not shown
heavy 2: not shown
light: B1 light
notes: as for B1
B13: GpH7-A5/GpH7-B3 variant P331_10E/GpL16-k0 (He Ab) (antibody, human IgG1, kappa)
heavy 1: not shown
heavy 2: not shown
light: B1 light
notes: as for B3
B14: GpH7-A5/GpH7-B3 variant G237_09D/GpL16-k0 (antibody, human IgG1, kappa)
heavy 1: not shown
heavy 2: not shown
light: B1 light
notes: as for B1
B15: GpH7-A5/GpH7-B3 variant P331_04F/GpL16-k0 (He Ab) (antibody, human IgG1, kappa)
heavy 1: not shown
heavy 2: not shown
light: B1 light
notes: as for B3
B16: GpH7-A5/GpH7-B3 variant L328_10E/GpL16-k0 (He Ab) (antibody, human IgG1, kappa)
heavy 1: not shown
heavy 2: not shown
light: B1 light
notes: as for B3
B17: GpH7-A5/GpH7-B3 variant P331_11K/GpL16-k0 (He Ab) (antibody, human IgG1, kappa)
heavy 1: not shown
heavy 2: not shown
light: B1 light
notes: as for B3

What was measured:
[1] = target: T1, FcγRIIb extracellular domain with C-terminal His tag (human, UniProt P31994 43-217); experiment: SPR (Biacore), relative to GpH7-A5/GpH7-B3/GpL16-k0 = 100
T1 construct: extracellular domain; also called 2b; FcgRIIb; not shown: His tag at the C terminus
T1 sequence (looked up): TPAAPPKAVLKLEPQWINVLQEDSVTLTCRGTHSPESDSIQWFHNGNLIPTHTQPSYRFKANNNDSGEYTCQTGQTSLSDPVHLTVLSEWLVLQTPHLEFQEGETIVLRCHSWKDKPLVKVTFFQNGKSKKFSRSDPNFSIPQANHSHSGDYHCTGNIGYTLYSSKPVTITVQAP

[2] = target: T2, FcγRIIIa extracellular domain with C-terminal His tag (human, UniProt P08637 17-208); experiment: as above
T2 construct: extracellular domain; also called 3a; FcgRIIIa; not shown: His tag at the C terminus
T2 sequence (P08637 17-208): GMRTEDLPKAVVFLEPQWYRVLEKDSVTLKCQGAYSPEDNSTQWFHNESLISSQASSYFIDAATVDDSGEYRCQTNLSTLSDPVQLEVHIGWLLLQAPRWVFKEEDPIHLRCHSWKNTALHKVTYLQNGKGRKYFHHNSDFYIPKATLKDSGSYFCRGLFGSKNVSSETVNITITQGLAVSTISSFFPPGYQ

[3] = target: T2, FcγRIIIa extracellular domain with …; experiment: SPR (Biacore); ratio of He/Con_3a (FcγRIIIa) to He/Con_2b (FcγRIIb)
[4] = target: T3, FcγRIIIa extracellular domain with C-terminal His tag (human, UniProt P08637 17-208); experiment: SPR (Biacore), antibody captured on antigen peptide chip, FcγR as analyte; relative binding
T3 construct: extracellular domain; also called FcgRIIIa; 3a; not shown: His tag attached to the C terminus
Method: (§1) The heterodimerized antibodies He Abs in which one of the H chains was introduced with an alteration were assayed for their binding activities to each activating FcγR and inhibitory FcγR according to the method described in Example 4. […] The activating FcγRs in FIGS. 26, 27, 28, and 29 are FcγRIa, FcγRIIa (R), FcγRIIa (H), and FcγRIIIa, respectively.
(§2) Analysis of interaction between objective antibody and the FcγR was carried out using Biacore T100 (GE Healthcare). HBS-EP+ (GE Healthcare) was used as the running buffer, and the measurement temperature was set to 25° C. Chips produced by immobilizing the antigen peptide by the amine coupling method to a Series S Sencor Chip CM5 (GE Healthcare), or alternatively, chips produced by allowing preliminarily biotinylated antigen peptides to interact with and immobilize onto a Series S Sensor Chip SA (certified) (GE Healthcare) were used. Antibodies of interest were captured onto an antigen peptide-immobilized chip, and allowed to interact to each FcγR diluted with running buffer. To regenerate and repeatedly use the chip, the antibodies captured on the chip were washed off by reacting 10 mM glycine-HCl, pH 1.5.
T3 sequence (P08637 17-208): as above

[5] = target: T4, FcγRIIb extracellular domain with C-terminal His tag (human, UniProt P31994 43-217); experiment: as above
T4 construct: extracellular domain; also called FcgRIIb; 2b; not shown: His tag attached to the C terminus
T4 sequence (looked up): T1 sequence (looked up)
Method: as §1, §2

Binder	He/Con_2b [1]	He/Con_3a [2]	He_3a/2b (IIIa/IIb) [3]	He/Con_3a [4]	He/Con_2b [5]
B1	57.4 % (control = 100)	31.4 % (control = 100)	0.55		
B2	152 % (control = 100)	22.1 % (control = 100)	0.14		
B3				45.1 % of GpH7-A5/GpH7-B3/GpL16-k0 (=100)	70.9 % of GpH7-A5/GpH7-B3/GpL16-k0 (=100)
B4				74.8 % of GpH7-A5/GpH7-B3/GpL16-k0 (=100)	102 % of GpH7-A5/GpH7-B3/GpL16-k0 (=100)
B5				72.1 % of GpH7-A5/GpH7-B3/GpL16-k0 (=100)	95.7 % of GpH7-A5/GpH7-B3/GpL16-k0 (=100)
B6				78.6 % of GpH7-A5/GpH7-B3/GpL16-k0 (=100)	142 % of GpH7-A5/GpH7-B3/GpL16-k0 (=100)
B7	180 % (control = 100)	20.3 % (control = 100)	0.11		
B8	150 % (control = 100)	117 % (control = 100)	0.78		
B9	114 % (control = 100)	25.4 % (control = 100)	0.22		
B10	147 % (control = 100)	76.4 % (control = 100)	0.52		
B11				31.7 % of GpH7-A5/GpH7-B3/GpL16-k0 (=100)	45.1 % of GpH7-A5/GpH7-B3/GpL16-k0 (=100)
B12	111 % (control = 100)	38.4 % (control = 100)	0.35		
B13				75.1 % of GpH7-A5/GpH7-B3/GpL16-k0 (=100)	116 % of GpH7-A5/GpH7-B3/GpL16-k0 (=100)
B14	223 % (control = 100)	17.7 % (control = 100)	0.08		
B15				77.3 % of GpH7-A5/GpH7-B3/GpL16-k0 (=100)	110 % of GpH7-A5/GpH7-B3/GpL16-k0 (=100)
B16				53.4 % of GpH7-A5/GpH7-B3/GpL16-k0 (=100)	172 % of GpH7-A5/GpH7-B3/GpL16-k0 (=100)
B17				67.5 % of GpH7-A5/GpH7-B3/GpL16-k0 (=100)	84.7 % of GpH7-A5/GpH7-B3/GpL16-k0 (=100)
